Experimental data published in patent US9266964.
Substitutions are numbered along the chain they refer to.

B1: M206-A06 (Fab, V domains shown)
VH: EVQLLESGGGLVQPGGSLRLSCAASGFTFSNYMMGWVRQAPGKGLQWVSSISPSGGLTKYADSVKGRFTISRDNSKNTLYLQMNSLRAEDTAVYYCARVARGIAARSRTSYFDYWGQGTLVTVSS
VL: DIQMTQSPGTLSLSPGERATLSCRTSQFVNSNYLAWYQQTPGQAPRLLIYGASSRATGIPDRFSGTGYGTDFTLTISRLEPEDYGTYYCQQSSRTPWTFGQGTRVEIK
B2: M207-A04 (Fab, V domains shown)
VH: B1 VH with N31H, M33L, G35T, Q46E, S50Y, L57H, K59I, S110R, Y111S
VL: B1 VL
B3: M208-B01 (Fab, V domains shown)
VH: B1 VH with N31H, M33L, G35T, Q46E, S50Y, L57H, K59I, Y111F, Y114Q
VL: B1 VL
B4: M29-D10 (Fab, V domains shown)
VH: EVQLLESGGGLVQPGGSLRLSCAASGFTFSWYPMYWVRQAPGKGLEWVSSIGSSGGPTPYADSVKGRFTISRDNSKNTLYLQMNSLRAEDTAVYYCARWADYGGSLDYWGQGTLVTVSS
VL: DIQMTQSPSSLSASVGDTVSITCRASQSITIYLNWYQHKPGKAPNLLIYGASNLHSGVPSRFSGSGSGTDFTLTISSLQPEDFATYYCQQSYDTPLTFGGGTKVEIK
notes: Fab fragment (E. coli TG1); printed HC runs into the start of CH1
B5: M29-G08 (Fab, V domains shown)
VH: EVQLLESGGGLVQPGGSLRLSCAASGFTFSYYHMWWVRQAPGKGLEWVSGISPSGGFTFYADSVKGRFTISRDNSKNTLYLQMNSLRAEDTAVYYCARDYYYDSSGYSPLGYWGQGTLVTVSS
VL: DIQMTQSPATLSASPGETVTLSCRASQNIGNDVAWYRQRPGQAPRLLIHHASTRAYGIPARLRGSGSATEFTLTITSLEPEDFAIYYCQQFYDWPAHTFALGTRLEIKR
notes: as for B4
B6: M29-G10 (Fab, V domains shown)
VH: EVQLLESGGGLVQPGGSLRLSCAASGFTFSFYKMIWVRQAPGKGLEWVSSISSSGGSTQYADSVKGRFTISRDNSKNTLYLQMNSLRAEDTAVYYCARDRVDLGYLDYWGQGTLVTVSS
VL: DIQMTQSPSSLSSSVGDSATITCRASQSISIYLNWYQQKPGKAPKILIYGASQLESGVPSRFSGSGSGTDFTLTVSGLQPEDFATYWCQQSYNVPYTFGQGTKLEIK
notes: as for B4
B7: M74-A07 (Fab, V domains shown)
VH: EVQLLESGGGLVQPGGSLRLSCAASGFTFSQYLMMWVRQAPGKGLEWVSSIYPSGGYTSYADSVKGRFTISRDNSKNTLYLQMNSLRAEDTAVYYCARVSTAVADNDYWGQGTLVTVSS
VL: DIQMTQSPSSLSASVRDRVTITCRTSQNINTYLNWYYQAPGRAPKLLIFGVSSLHRGVSSRFSGSGDGTEFTLTISSLQPEDIGTYFCQQSYSSPWTFGQGTKVEIK
notes: as for B4
B8: M76-F02 (Fab, V domains shown)
VH: EVQLLESGGGLVQPGGSLRLSCAASGFTFSLYDMNWVRQAPGKGLEWVSGISPSGGQTMYADSVKGRFTISRDNSKNTLYLQMNSLRAEDTAVYYCARQPMISAFDIWGQGTMVTVSS
VL: DIQMTQSPSSLSASVGDRVTITCRASQTIDNYLHWYQQKPGKAPKVLIHDASSLQSGVPPRFSGSGSGTDFTLTISSLQPEDFATYYCQQSYDTPQYTFGQGTKLEIK
notes: as for B4
B9: M76-G02 (Fab, V domains shown)
VH: EVQLLESGGGLVQPGGSLRLSCAASGFTFSLYAMWWVRQAPGKGLEWVSYISSSGGFTSYADSVKGRFTISRDNSKNTLYLQMNSLRAEDTAVYYCARYRVGVAATDYWGQGTLVTVSS
VL: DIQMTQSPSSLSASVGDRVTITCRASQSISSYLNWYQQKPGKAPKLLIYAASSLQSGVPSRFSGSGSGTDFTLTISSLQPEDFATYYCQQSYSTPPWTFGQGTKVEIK
notes: as for B4
B10: M76-G06 (Fab, V domains shown)
VH: EVQLLESGGGLVQPGGSLRLSCAASGFTFSGYIMHWVRQAPGKGLEWVSWIYPSGGWTEYADSVKGRFTISRDNSKNTLYLQMNSLRAEDTAVYYCARDAPGVGAIDYWGQGTLVTVSS
VL: DIQMTQSPSSLSASVRDRVTITCRASQSISTYLNWYQQKPGEAPKLLVFAASSLQSGVPSRFSGSGSGTDFTLSISSLQPEDFATYYCQQSYSTPHTFGQGAKVEIK
notes: as for B4
B11: M76-H02 (Fab, V domains shown)
VH: EVQLLESGGGLVQPGGSLRLSCAASGFTFSMYWMQWVRQAPGKGLEWVSYIYPSGGPTKYADSVKGRFTISRDNSKNTLYLQMNSLRAEDTAVYYCARPSGSYGDAFDIWGQGTMVTVSS
VL: DIQMTQSPSSLSASEGDRVTITCRASQDISVYLNWYQMKSGKAPKLLIYGGASLQSGVPARFSGSGYGTDFTLTITDLRPEDFATYYCQQSYSLPFTFGGGTKVEIK
notes: as for B4
B12: M77-C07 (Fab, V domains shown)
VH: B10 VH with G31L, H35G, W50G, W57F, E59M, D99E, A100S, P101S, G104A, I106P
VL: DIQMTQSPSTLSASVGDRVTITCRASQNISSYLNWYQQKPGKAPKLLIYAASSLQSGVPSRFSGSGSGTDFTLTISSLQPEDFATYSCQQSYSTPRTFGQGTKVEIK
notes: as for B4
B13: M77-H04 (Fab, V domains shown)
VH: EVQLLESGGGLVQPGGSLRLSCAASGFTFSYYTMIWVRQAPGKGLEWVSGIRSSGGGTRYADSVKGRFTISRDNSKNTLYLQMNSLRAEDTAVYYCAKDGSRYSYGSIYYYYGMDAWGQGTTVTVSS
VL: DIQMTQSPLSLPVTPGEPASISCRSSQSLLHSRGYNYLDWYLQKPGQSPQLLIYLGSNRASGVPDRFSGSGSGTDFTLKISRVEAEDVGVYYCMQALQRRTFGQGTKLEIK
notes: as for B4
B14: M6-A06 (Fab, V domains shown)
VH: B7 VH with Q31L, L33Q, M35T, S50G, Y52W, Y57F, S59D
VL: DIQMTQSPSSLSASVGDSVTISCRASQSISMYLNWYQHKPGKAPKLLIYGTSSLQSGVPSRFSGSGPGGTDFTLTISSLQPEDFATYYCQQSYSAPWTFGQGTKVEIK
notes: as for B4
B15: M6-A08 (Fab, V domains shown)
VH: EVQLLESGGGLVQPGGSLRLSCAASGFTFSPYPMQWVRQAPGKGLEWVSSISSSGGMTEYADSVKGRFTISRDNSKNTLYLQMNSLRAEDTAVYYCARDDYGGKGGAFDIWGQGTMVTVSS
VL: DIQMTQSPSSLSASVGDRVTITCRASQRISFYLNWFQQKPGKAPNLLIYGASSLQSGVPSRFSGSGSGTDFTLTISSLQPKDFGTYYCQQTFSTPNTFGQGTKLEIK
notes: as for B4
B16: M6-D03 (Fab, V domains shown)
VH: B7 VH with Q31K, L33F, M35G, S50V, Y52G, P53S, Y57W
VL: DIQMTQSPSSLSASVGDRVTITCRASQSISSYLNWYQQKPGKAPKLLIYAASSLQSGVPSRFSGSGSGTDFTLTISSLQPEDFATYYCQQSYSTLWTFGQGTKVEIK
notes: as for B4
B17: M6-D08 (Fab, V domains shown)
VH: EVQLLESGGGLVQPGGSLRLSCAASGFTFSRYHMVWVRQAPGKGLEWVSSISPSGGWTNYADSVKGRFTISRDNSKNTLYLQMNSLRAEDTAMYYCAREMATIAGQFDPWGQGTLVTVSS
VL: DIQMTQSPSSLSASVGDRVTITCRASQSISSYLNWYQQKPGKAPKLLIYGASSLQSGVPSRFSGSGSGTDFTLTISSLQPEDSATYYCQQSYTRWTFGQGTKVEIK
notes: Fab fragment (E. coli TG1); printed HC runs into the start of CH1; The LC is printed with an amber codon 'q' (WYqQK), written here as Q
B18: M6-G05 (Fab, V domains shown)
VH: EVQLLESGGGLVQPGGSLRLSCAASGFTFSRYRMVWVRQAPGKGLEWVSSIYPSGGMTAYADSVKGRFTISRDNSKNTLYLQMNSLRAEDTAVYYCARDAVGIGDAFDIWGQGTMVTVSS
VL: DIQMTQSPSSLSASVGDRVTITCRASQSISTYLNWYQLKPGKAPKLLIYNAFSMERGVPSTISGSGSGTDFTLTISSLQPEDFATYYCQQSYTTPTTFGQGTKVEIK
notes: as for B4
B19: M8-C04 (Fab, V domains shown)
VH: EVQLLESGGGLVQPGGSLRLSCAASGFTFSYYPMQWVRQAPGKGLEWVSYIYPSGGLTSYADSVKGRFTISRDNSKNTLYLQMNSLRAEDTAVYYCARLFYGSGSVGFEYWGQGTLVTVSS
VL: QSALTQPPSVSVSPGQTASITCSGDKLGDKYTSWHQQKPGQSPVLVIYQDSKRPSGIPERFSGSNSGNTATLTISGTQAMDEADYYCQAWDSSTVFGGGTRLTVL
notes: as for B4
B20: M8-D05 (Fab, V domains shown)
VH: EVQLLESGGGLVQPGGSLRLSCAASGFTFSLYNMNWVRQAPGKGLEWVSSISPSGGFTDYADSVKGRFTISRDNSKNTLYLQMNSLRAEDTAVYYCARDLDLGILDYWGQGTLVTVSS
VL: DIQMTQSPSFVSASVGDRVTITCRASQDISSWLVWYQQKPGKGPKLLIYDASNLQSGVPSRFSGGGSGTHFTLTISSLQPEDFATYYCQQADGFPLTFGGGTKVEMK
notes: as for B4
B21: M8-E06 (Fab, V domains shown)
VH: EVQLLESGGGLVQPGGSLRLSCAASGFTFSHYFMTWVRQAPGKGLEWVSSIVPSGGMTQYADSVKGRFTISRDNSKNTLYLQMNSLRAEDTAVYYCARDSYSSSWFDIWGQGTMVTVSS
VL: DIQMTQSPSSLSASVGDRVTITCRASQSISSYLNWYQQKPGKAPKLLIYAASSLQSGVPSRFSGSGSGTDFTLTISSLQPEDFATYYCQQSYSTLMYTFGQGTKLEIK
notes: as for B4
B22: M8-G09 (Fab, V domains shown)
VH: EVQLLESGGGLVQPGGSLRLSCAASGFTFSLYEMLWVRQAPGKGLEWVSVIYPSGGYTDYADSVKGRFTISRDNSKNTLYLQMNSLRAEDMAVYYCARSFSGFGEIDYWGQGTLVTVSS
VL: DIQMTQSPSSLSASVGDTVTITCRASQGVSYYLAWFQQKPGKAPKSLIYGASSLQSGVPSKFSGSGSGTVFTLTISSLQPDDFATYYCQQYNTYPPTFGQGTRLDIK
notes: as for B4
B23: M8-H04 (Fab, V domains shown)
VH: EVQLLESGGGLVQPGGSLRLSCAASGFTFSGYWMGWVRQAPGKGLEWVSSISSSGGWTQYADSVKGRFTISRDNSKNTLYLQMNSLRAEDTATYYCARDDEIAAGGAFDIWGQGAMVTVSS
VL: DIQMTQSPSSLSASIGDRVTITCRASQYISTYLNWYEQKPGKAPKLLIYGTSSLQSGVPSRFSGSGSGTEFSLTISSLQPEDFATYYCQQSFTTPFTFGQGTKLEIK
notes: as for B4
B24: M9-A03 (Fab, V domains shown)
VH: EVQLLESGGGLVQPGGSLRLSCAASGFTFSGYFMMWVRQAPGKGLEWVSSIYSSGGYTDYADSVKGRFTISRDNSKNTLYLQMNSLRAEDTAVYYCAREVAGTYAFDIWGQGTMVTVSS
VL: DIQMTQSPSSLSASLGDRVTITCRASQNIDIYLNWYQQTPGKAPKLLIYGAYNLQSGVPSRFSGSGSGTDFTLTISSLQPEDFGTYYCQQSYGTPVFGQGTKLEIK
notes: as for B4

How the values were obtained:
human plasma kallikrein [1] = target: human plasma kallikrein (human, UniProt P03952 20-390; P03952 391-638); experiment: cell-based or functional assay
Target sequence in this assay (P03952 20-390, chain 1 of 2): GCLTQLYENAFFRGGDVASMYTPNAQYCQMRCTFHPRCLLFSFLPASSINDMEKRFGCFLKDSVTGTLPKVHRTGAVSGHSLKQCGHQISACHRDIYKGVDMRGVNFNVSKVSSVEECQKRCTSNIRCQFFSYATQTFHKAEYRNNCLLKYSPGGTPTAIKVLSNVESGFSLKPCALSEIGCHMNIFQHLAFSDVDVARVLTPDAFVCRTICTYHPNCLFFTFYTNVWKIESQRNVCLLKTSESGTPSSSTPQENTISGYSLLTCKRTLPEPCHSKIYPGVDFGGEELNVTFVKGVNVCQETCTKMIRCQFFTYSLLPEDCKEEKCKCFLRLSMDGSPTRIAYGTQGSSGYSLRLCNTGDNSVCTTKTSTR
Target sequence in this assay (P03952 391-638, chain 2 of 2): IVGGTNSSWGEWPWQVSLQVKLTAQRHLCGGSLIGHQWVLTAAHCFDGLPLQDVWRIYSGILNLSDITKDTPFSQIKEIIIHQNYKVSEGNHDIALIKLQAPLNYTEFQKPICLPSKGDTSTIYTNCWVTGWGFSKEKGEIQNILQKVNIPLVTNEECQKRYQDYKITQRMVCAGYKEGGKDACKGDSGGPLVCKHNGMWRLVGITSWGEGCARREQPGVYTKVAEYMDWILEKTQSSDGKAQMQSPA

human plasma kallikrein [2] = target: T1, human plasma kallikrein (human, UniProt P03952 20-390; P03952 391-638); experiment: ELISA; signal on coated biotinylated human plasma kallikrein divided by signal on streptavidin; Fab
T1 construct: two disulfide-linked chains; also called pKal; human pKal
From the text: Abbreviations used: "T/B" is the ELISA signal obtained using of the target (biotinylated plasma kallikrein) divided by the ELISA signal of the "background" (streptavidin); both of which were coated on microtiter plates. "nd" is not determined. The symbol "q" refers to the amber suppressible stop codon (TAG), which is translated as glutamine (Q) in strains of E. coli such as the TG1 cells that were used to express the Fab fragments.
T1 sequence (P03952 20-390, chain 1 of 2): as the sequence (P03952 20-390, chain 1 of 2) above
T1 sequence (P03952 391-638, chain 2 of 2): as the sequence (P03952 391-638, chain 2 of 2) above

Row | Binder | % inhibition at 10 nM (human plasma kallikrein [1]) [%] | Human pKal ELISA (T/B) (human plasma kallikrein [2])
1 | B1 | 93 | 
2 | B2 | 90.9 | 
3 | B3 | 90.1 | 
4 | B4 |  | 23.6 T/B (target signal / background signal)
5 | B5 |  | 40.4 T/B (target signal / background signal)
6 | B6 |  | 16.4 T/B (target signal / background signal)
7 | B7 |  | 8.6 T/B (target signal / background signal)
8 | B8 |  | 6.4 T/B (target signal / background signal)
9 | B9 |  | 10.3 T/B (target signal / background signal)
10 | B10 |  | 11.8 T/B (target signal / background signal)
11 | B11 |  | 13.4 T/B (target signal / background signal)
12 | B12 |  | 16.1 T/B (target signal / background signal)
13 | B13 |  | 7.6 T/B (target signal / background signal)
14 | B14 |  | 11.7 T/B (target signal / background signal)
15 | B15 |  | 23.4 T/B (target signal / background signal)
16 | B16 |  | 15.5 T/B (target signal / background signal)
17 | B17 |  | 16 T/B (target signal / background signal)
18 | B18 |  | 18.5 T/B (target signal / background signal)
19 | B19 |  | 44.7 T/B (target signal / background signal)
20 | B20 |  | 11.9 T/B (target signal / background signal)
21 | B21 |  | 8.8 T/B (target signal / background signal)
22 | B22 |  | 28.2 T/B (target signal / background signal)
23 | B23 |  | 3.3 T/B (target signal / background signal)
24 | B24 |  | 14.4 T/B (target signal / background signal)
